± gives the uncertainty stated by the source.
B1: Steroid hormone receptor ERR2, residues 100 to 176; numbered along this chain, O95718 (parent)
chain: KRLCLVCGDIASGYHYGVASCEACKAFFKRTIQGNIEYSCPATNECEITKRRRKSCQACRFMKCLKVGMLKEGVRLD

Variants of: B1
Assay: abundance fitness (aPCA) (normalised: wild type 0, dead -1); higher = more abundant; growth selection in yeast, the domain comes from the species named
Details: Homo sapiens

Variant | abundance fitness
P41H | -0.028 ± 0.087
P41C | -0.045 ± 0.057
P41D | 0.213 ± 0.059
P41Q | -0.045 ± 0.063
I32E | -0.148 ± 0.053
I32Q | -0.422 ± 0.082
V67A | -0.121 ± 0.055
V67T | -0.262 ± 0.079
T49G | -0.041 ± 0.059
T49L | -0.117 ± 0.087
T49H | -0.523 ± 0.17
I36F | -0.095 ± 0.11
I36Y | -0.235 ± 0.09
I36Q | -0.16 ± 0.064
I36H | -0.167 ± 0.11
I36P | -0.182 ± 0.081
I36W | -0.231 ± 0.053
K29I | -0.481 ± 0.12
K29H | -0.067 ± 0.1
K29Y | -0.65 ± 0.25
A26E | 0.162 ± 0.048
A26H | 0.095 ± 0.089
A26I | -0.334 ± 0.18
A26Y | -0.561 ± 0.17

Variant | abundance fitness
K50L | -0.088 ± 0.063
K50M | 0.098 ± 0.1
Y16P | -0.355 ± 0.067
Y16S | -0.276 ± 0.05
Y16W | -0.103 ± 0.074
Y16L | -0.332 ± 0.046
Y16T | -0.418 ± 0.059
Y16I | -0.342 ± 0.087
K66W | -0.559 ± 0.1
K66L | -0.436 ± 0.065
K66P | -1.27 ± 0.38
K66H | -0.168 ± 0.13
C46I | -1.06 ± 0.43
C46V | -0.615 ± 0.084
C46W | -0.733 ± 0.098
C46P | -0.796 ± 0.17
C46R | -0.704 ± 0.082
K71F | -0.305 ± 0.11
K71M | -0.063 ± 0.061
K71T | -0.106 ± 0.075
K71V | -0.02 ± 0.045
K71G | -0.166 ± 0.044
R52K | -0.115 ± 0.086
R52C | -0.86 ± 0.38

Variant | abundance fitness
R52P | -0.339 ± 0.1
R52H | -0.627 ± 0.32
R52L | 0.099 ± 0.054
R52Y | -0.452 ± 0.21
E37R | -0.371 ± 0.053
E37W | -0.543 ± 0.079
E37I | -0.341 ± 0.18
E37G | -0.122 ± 0.041
E37Q | -0.41 ± 0.1
E37M | -0.654 ± 0.14
E37H | -0.19 ± 0.14
K63Q | -0.21 ± 0.064
K63P | -0.914 ± 0.16
K63H | -0.359 ± 0.12
K63F | -0.931 ± 0.23
K63C | -0.242 ± 0.077
K63G | -0.534 ± 0.058
K63I | -0.461 ± 0.19
L5S | -0.233 ± 0.058
L5P | -0.358 ± 0.085
D77N | -0.166 ± 0.11
D77L | -0.168 ± 0.088
D77I | -0.572 ± 0.19
D77E | -0.096 ± 0.082

Variant | abundance fitness
D77F | -0.363 ± 0.22
D77Q | 0.26 ± 0.13
D77R | -0.11 ± 0.058
G17T | -0.337 ± 0.078
G17R | -0.495 ± 0.055
L70W | -0.032 ± 0.053
L70G | -0.084 ± 0.042
L70A | -0.004 ± 0.056
L70Y | -0.646 ± 0.17
L70Q | -0.035 ± 0.085
L70C | -0.098 ± 0.073
L70V | 0.107 ± 0.046
L70F | -0.066 ± 0.073
L70T | 0.011 ± 0.062
C40P | -0.684 ± 0.13
C40Y | -0.247 ± 0.19
C40I | -0.443 ± 0.17
C40W | -0.94 ± 0.12
C40K | -0.781 ± 0.17
A11Q | -0.217 ± 0.078
A11T | -0.321 ± 0.091
A11F | -0.213 ± 0.1
E45W | -0.981 ± 0.2
E45N | -0.235 ± 0.12

Variant | abundance fitness
E45F | -0.329 ± 0.17
E45I | -0.288 ± 0.18
E45S | -0.149 ± 0.058
G13Q | -0.244 ± 0.2
G13P | -0.393 ± 0.18
G13T | -0.509 ± 0.17
G13F | -0.27 ± 0.16
C56A | -0.828 ± 0.12
C56H | -0.599 ± 0.19
C56I | -0.679 ± 0.18
C56D | -1.17 ± 0.32
V74Y | -0.319 ± 0.16
V74T | -0.129 ± 0.08
V74L | -0.004 ± 0.05
V74M | -0.13 ± 0.075
V6C | -0.684 ± 0.14
V6A | -0.497 ± 0.078
V6N | -0.826 ± 0.2
V6S | -0.713 ± 0.1
V6H | -1.18 ± 0.48
Y14S | -0.111 ± 0.055
Y14M | -0.276 ± 0.083
Y14L | 0.04 ± 0.047
Y14I | 0.03 ± 0.091

Variant | abundance fitness
Y14F | 0.063 ± 0.083
Y14N | -0.022 ± 0.11
A23C | 0.094 ± 0.067
A23N | -0.658 ± 0.21
A23F | -0.538 ± 0.24
L3I | 0.319 ± 0.087
L3V | -0.036 ± 0.047
L3P | -0.372 ± 0.083
L3W | -0.446 ± 0.066
L3M | -0.1 ± 0.073
L3Y | 0.219 ± 0.085
G34M | -0.041 ± 0.062
G34C | -0.227 ± 0.078
F61E | -0.892 ± 0.17
F61Q | -0.257 ± 0.096
F61K | -0.266 ± 0.089
M69T | -0.54 ± 0.12
M69V | -0.749 ± 0.095
M69D | -0.694 ± 0.15
R60T | 0.051 ± 0.057
R60M | 0.108 ± 0.05
R60P | -0.798 ± 0.15
R60Y | 0.279 ± 0.072
R60K | 0.177 ± 0.055

Variant | abundance fitness
R60Q | 0.173 ± 0.052
R60H | 0.254 ± 0.075
C4I | -0.956 ± 0.3
C4L | -0.8 ± 0.11
C4M | -0.72 ± 0.14
C4V | -0.917 ± 0.14
C4G | -0.696 ± 0.083
G8P | -0.725 ± 0.16
G8Q | 0.086 ± 0.058
G8W | -0.374 ± 0.071
G8I | -0.636 ± 0.3
S39K | 0.305 ± 0.051
S39Y | 0.283 ± 0.089
S39I | 0.19 ± 0.086
A19N | 0.005 ± 0.085
A19S | 0.049 ± 0.045
A19D | 0.046 ± 0.067
H15T | -0.356 ± 0.094
H15I | -0.115 ± 0.081
H15Q | -0.097 ± 0.13
H15W | -0.1 ± 0.066
H15Y | -0.085 ± 0.14
H15K | -0.363 ± 0.099

Reference: the Human Domainome abundance scans (Beltran et al. 2025)
